Test results from US20170042969A1.

Target: ornithine decarboxylase (ODC) present in Xenopus laevis oocytes
Test: cell-based or functional assay

Binder | IC50 for down-regulation of hSGLT1 at low intracellular AMG, against hRS1-Reg wildtype [times] | affinity for down-regulation of hSGLT1 in the presence of intracellular glucose, against hRS1-Reg wildtype [times] | change of IC50 for down-regulation of hSGLT1 at high intracellular AMG (~250 µM) against low AMG [fold] | increase of affinity for down-regulation of hSGLT1 against hRS1-Reg wildtype or hRS1-Reg(S20A) [fold] | decrease of affinity for down-regulation of hSGLT1 at high intracellular glucose [fold]
hRS1-Reg(S20E) (protein, not shown: small tags and cut ends) SSGQEPDVGNPMSLARSVSASVCPIKPSDSDRIEPKAVKALKASAEFQLNSEKKEHLSLQDLSDHASSADHAPTDQSPAMPMQ | 6300 | 1.5e+07 | 300 | 4000 to 6000 | 
hRS1-Reg(S20A) (protein, not shown: small tags and cut ends) SSGQAPDVGNPMSLARSVSASVCPIKPSDSDRIEPKAVKALKASAEFQLNSEKKEHLSLQDLSDHASSADHAPTDQSPAMPMQ |  |  |  |  | 7 to 8
